Data taken from PMC13376213, “Systematic discovery of motif-based interactions of the auxiliary domains of USP family deubiquitinases” (Nature Communications, 2026).

B1: RCCD1 (protein, UniProt A6NED2 1-376, looked up)
RCC1 domain-containing …: MAEERPGAWFGFGFCGFGQELGSGRGRQVHSPSPLRAGVDICRVSASWSYTAFVTRGGRLELSGSASGAAGRCKDAWASEGLLAVLRAGPGPEALLQVWAAESALRGEPLWAQNVVPEAEGEDDPAGEAQAGRLPLLPCARAYVSPRAPFYRPLAPELRARQLELGAEHALLLDAAGQVFSWGGGRHGQLGHGTLEAELEPRLLEALQGLVMAEVAAGGWHSVCVSETGDIYIWGWNESGQLALPTRNLAEDGETVAREATELNEDGSQVKRTGGAEDGAPAPFIAVQPFPALLDLPMGSDAVKASCGSRHTAVVTRTGELYTWGWGKYGQLGHEDTTSLDRPRRVEYFVDKQLQVKAVTCGPWNTYVYAVEKGKS
B2: CCDC85C (protein, UniProt A6NKD9 2-419, looked up)
Coiled-coil domain-containing …: AKPAATAAAASEELSQVPDEELLRWSKEELARRLRRAEGEKVGLMLEHGGLMRDVNRRLQQHLLEIRGLKDVNQRLQDDNQELRELCCFLDDDRQKGRKLAREWQRFGRHAAGAVWHEVARSQQKLRELEARQEALLRENLELKELVLLLDEERAALAATGAASGGGGGGGGAGSRSSIDSQASLSGPLSGGAPGAGARDVGDGSSTSSAGSGGSPDHHHHVPPPLLPPGPHKAPDGKAGATRRSLDDLSAPPHHRSIPNGLHDPSSTYIRQLESKVRLLEGDKLLAQQAGSGEFRTLRKGFSPYHSESQLASLPPSYQDSLQNGPACPAPELPSPPSAGYSPAGQKPEAVVHAMKVLEVHENLDRQLQDSCEEDLSEKEKAIVREMCNVVWRKLGDAASSKPSIRQHLSGNQFKGPL
B3: RTL8C (protein, UniProt O15255 1-206, looked up)
CAAX box protein 1: MGGGRGLLGRETLGPGGGCSGEGPLCYWPPPGSPPAPSLRASLPLEPPRCPLRSCSLPRSACLCSRNSAPGSCCRPWASLWSEPPPSPSSQPAPPMYIWTLSCAPAASWAPVTHWTDHPLPPLPSPLLPTRLPDDYIILPTDLRCHSHRHPSHPTDRLLLLVIWTHLGGIWAGHSPWTVIQTAGRPPRDLSPSARPISSPPPETSC
B4: ILVBL (protein, UniProt A1L0T0 1-632, looked up)
2-hydroxyacyl-CoA lyase 2: METPAAAAPAGSLFPSFLLLACGTLVAALLGAAHRLGLFYQLLHKVDKASVRHGGENVAAVLRAHGVRFIFTLVGGHISPLLVACEKLGIRVVDTRHEVTAVFAADAMARLSGTVGVAAVTAGPGLTNTVTAVKNAQMAQSPILLLGGAASTLLQNRGALQAVDQLSLFRPLCKFCVSVRRVRDIVPTLRAAMAAAQSGTPGPVFVELPVDVLYPYFMVQKEMVPAKPPKGLVGRVVSWYLENYLANLFAGAWEPQPEGPLPLDIPQASPQQVQRCVEILSRAKRPLMVLGSQALLTPTSADKLRAAVETLGVPCFLGGMARGLLGRNHPLHIRENRSAALKKADVIVLAGTVCDFRLSYGRVLSHSSKIIIVNRNREEMLLNSDIFWKPQEAVQGDVGSFVLKLVEGLQGQTWAPDWVEELREADRQKEQTFREKAAMPVAQHLNPVQVLQLVEETLPDNSILVVDGGDFVGTAAHLVQPRGPLRWLDPGAFGTLGVGAGFALGAKLCRPDAEVWCLFGDGAFGYSLIEFDTFVRHKIPVMALVGNDAGWTQISREQVPSLGSNVACGLAYTDYHKAAMGLGARGLLLSRENEDQVVKVLHDAQQQCRDGHPVVVNILIGRTDFRDGSIAV
B5: MEIOC (protein, UniProt A2RUB1 1-952, looked up)
Meiosis-specific coiled-coil …: MEVRRGDTCPRPHPSGLREEGLEPKVAFPGGANRCWNLGADAGSRLTDVFGSVMLTGSASFYDCYTSQSEDNVDLRQTYTPFSSTEYSSSVDSSLFCAPWSTYGDDIKQPSNSQISIKNRIQTERNDYGSETDLYGLVSNILEEQDKSQPYFAEGTCSSNLKSVWPMNTSRFADHHDLLTETKRPIDTVISQQAFYSDESVSAMEKQYLRNSNLTPQQKIDELHHGFTGLDLEEQWMYPSRSDHSNCHNIQTNDTAKTTFQEYPLIKNCFTPQTGLSDIMKESGVDIYHYGRDRICTKGLEAPLQQKRAEMFLSQFNRYNENVDYCRYPEYVHPNKAKLNKCSNFSVQDSKKLANGTPETPTVEADTYTKLFQVKPANQKKMEETIPDQQNFTFPKTTPHLTEKQFAKEAVFTADFGLTSEYGLKPHTACPANDFANVTEKQQFAKPDPPHSEYFKSVNLLSNSATSSGGINLNRPTWMNVQTKNNTPIPYRNQGNLMKLNSHLSAASKGSNHSSDFPQLSSTNLTPNSNLFQKYCQENPSAFSSFDFSYSGAERIQSVNHIEGLTKPGEENLFKLVTDKKIKQPNGFCDNYSAQKYGIIENVNKHNFQAKPQSGHYDPEEGPKHLDGLSQNTYQDLLESQGHSNSHRTRGGDNSRVNRTQVSCFSNNYMMGDLRHNQCFQQLGSNGFPLRSTHPFGHSVVPLLDSYDLLSYDDLSHLYPYFNMMYGDNSFSGLMPTFGFQRPIKTRSGPASELHIRLEECCEQWRALEKERKKTELALAKNYPGKKVSSTNNTPVPRLTSNPSRVDRLIVDELRELARVVTLLGKMERLRSSLLHASISTALDRHLESIHIVQSRRKDEIVNASNRQRQGVPRCQDDRDVFALASAIKEMCVATRKTRTALWCALQMTLPKTASTADVVKPLQDTVNCEDKVHESINSSNPMNQRGETNKH
B6: SNAP23 (protein, UniProt O00161 1-211, looked up)
Synaptosomal-associated …: MDNLSSEEIQQRAHQITDESLESTRRILGLAIESQDAGIKTITMLDEQKEQLNRIEEGLDQINKDMRETEKTLTELNKCCGLCVCPCNRTKNFESGKAYKTTWGDGGENSPCNVVSKQPGPVTNGQLQQPTTGAASGGYIKRITNDAREDEMEENLTQVGSILGNLKDMALNIGNEIDAQNPQIKRITDKADTNRDRIDIANARAKKLIDS

Experiments:
FLAG-USP20 = test: IP-MS of FLAG-USP20 and variants vs empty vector; type: cell-based, human
Description: For transfection, 1x10^6 HEK293 cells were seeded in 10 cm dishes with DMEM, 10% FBS, 1% L-G (without antibiotic) medium, incubated at 37 °C, with 5 % CO2 for 24 h. Cells were transfected with a transfection mix containing 970 mL of Opti-MEM (Thermo Fisher Scientific), 20 μL of PEI stock (1 mg/mL) and 5 mg of the desired cDNA. For co-transfection, 2.5 μg of DNA of each plasmid was used. The mix was vortexed for 15 s and incubated at room temperature for 15–20 min. The transfection mix was added to the dish and gently mixed. Plates were incubated at 37 °C for 36–48 h before harvesting. For USP33 constructs, 5 μM Bortezomib (proteasome inhibitor) was added 4 hours before harvesting the cells.
FLAG fusion proteins were immunoprecipitated from HEK293 cells transfected with plasmids encoding the protein of interest using the anti-FLAG M2 affinity gel from Sigma-Aldrich. […] The cell lysate was clarified by centrifugation at 17,000 x g, at 4 °C for 12 min, and the supernatant was transferred to a clean, pre-chilled low-binding Eppendorf tube. […] The IP samples were centrifuged at 6500 x g at 4 °C for 30 s. The supernatant containing the unbound proteins was transferred to a clean tube. The resin was washed three times with 500 μL of TBS, centrifuged at 6500 x g at 4 °C for 30 s. The bound FLAG fusion protein was eluted with 100 μL of 150 ng/μL 3X FLAG peptide (Sigma) in TBS and incubated in the cold room for 1 h or overnight. The tube was centrifuged at 6500 x g at 4 °C for 30 s; the eluted proteins were transferred to a clean tube. The eluted proteins were prepared for analysis by western blot or Mass Spectrometry.
Immunoprecipitation (IP) was carried out as described above; four technical replicates of each IP condition were performed, and the empty vector was used as a negative control. The eluted protein was processed following the Strap-micro protocol (Protifi). The IP elution containing 1–100 μg protein was 1:1 mixed with 2X lysis buffer (10% SDS, 100 mM TEAB pH 8.5). […] Samples were vortexed, mixed with 165 μL of 100 mM TEAB in 90% methanol, and passed through an S-Trap micro column at 4000 g for 30 s to trap the proteins. The column was washed with 150 μL of 100 mM TEAB in 90% methanol (at 4,000 x g for 30 seconds) three times. The S-Trap column was centrifuged again and transferred to a clean 2 mL tube for digestion with 20 μL of digestion buffer (1 μg trypsin per 10 μg sample in 50 mM TEAB), at 37 °C overnight in a thermomixer without shaking. The digested peptides were eluted with 40 mL of 50 mM TEAB in water, 40 mL of 0.2 % formic acid in water, and 40 mL of 50 % acetonitrile in water, centrifuging at 4000 x g for 1 min each time. The three elutions were pooled in a low-binding tube, placed on dry ice until frozen, dried in a SpeedVac vacuum (Thermo Scientific), and proceeded with the LCMS analysis.
Protein groups identified with a single peptide or quantified in fewer than three replicates in at least 1 condition were filtered out. Protein group intensities were median normalized and missing values were imputed using a Gaussian distribution centered on the median with a downshift of 1.8 and width of 0.3 (relative to the standard deviation).

FLAG-USP33 = test: IP-MS of FLAG-USP33 and variants vs empty vector; type: cell-based, human
Description: For transfection, 1x10^6 HEK293 cells were seeded in 10 cm dishes with DMEM, 10% FBS, 1% L-G (without antibiotic) medium, incubated at 37 °C, with 5 % CO2 for 24 h. Cells were transfected with a transfection mix containing […] of Opti-MEM (Thermo Fisher Scientific), 20 μL of PEI stock (1 mg/mL) and […] of the desired cDNA. For co-transfection, 2.5 μg of DNA of each plasmid was used. The mix was vortexed for 15 s and incubated at room temperature for 15–20 min. The transfection mix was added to the dish and gently mixed. Plates were incubated at 37 °C for 36–48 h before harvesting. For USP33 constructs, 5 μM Bortezomib (proteasome inhibitor) was added 4 hours before harvesting the cells.
FLAG fusion proteins were immunoprecipitated from HEK293 cells transfected with plasmids encoding the protein of interest using the anti-FLAG M2 affinity gel from Sigma-Aldrich. Cell pellets were lysed with 100–200 μL/per dish lysis buffer (Pierce RIPA buffer, 1X protease inhibitor (Roche), 50 unit/μL of Benzonase Nuclease) rotating at 4 °C for 30–45 min. […] The cell lysate was clarified by centrifugation at 17,000 x g, at 4 °C for 12 min, and the supernatant was transferred to a clean, pre-chilled low-binding Eppendorf tube. […] The IP samples were centrifuged at 6500 x g at 4 °C for 30 s. The supernatant containing the unbound proteins was transferred to a clean tube. The resin was washed three times with 500 μL of TBS, centrifuged at 6500 x g at 4 °C for 30 s. The bound FLAG fusion protein was eluted with 100 μL of 150 ng/μL 3X FLAG peptide (Sigma) in TBS and incubated in the cold room for 1 h or overnight. The tube was centrifuged at 6500 x g at 4 °C for 30 s; the eluted proteins were transferred to a clean tube. The eluted proteins were prepared for analysis by western blot or Mass Spectrometry.
Immunoprecipitation (IP) was carried out as described above; four technical replicates of each IP condition were performed, and the empty vector was used as a negative control. The eluted protein was processed following the Strap-micro protocol (Protifi). The IP elution containing 1–100 μg protein was 1:1 mixed with 2X lysis buffer (10% SDS, 100 mM TEAB pH 8.5). […] Samples were vortexed, mixed with 165 μL of 100 mM TEAB in 90% methanol, and passed through an S-Trap micro column at 4000 g for 30 s to trap the proteins. The column was washed with 150 μL of 100 mM TEAB in 90% methanol (at 4,000 x g for 30 seconds) three times. The S-Trap column was centrifuged again and transferred to a clean 2 mL tube for digestion with 20 μL of digestion buffer (1 μg trypsin per 10 μg sample in 50 mM TEAB), at 37 °C overnight in a thermomixer without shaking. The digested peptides were eluted with […] of 50 mM TEAB in water, […] of 0.2 % formic acid in water, and […] of 50 % acetonitrile in water, centrifuging at 4000 x g for 1 min each time. The three elutions were pooled in a low-binding tube, placed on dry ice until frozen, dried in a SpeedVac vacuum (Thermo Scientific), and proceeded with the LCMS analysis.
Eluted peptides were resuspended in water supplemented with 0.015% dodecyl maltoside and 0.1% formic acid and were injected on a Vanquish Neo UHPLC System operating in trap and elute mode coupled to an Orbitrap Astral Mass Spectrometer (Thermo Fisher Scientific). […] Eluted peptides were analyzed using data-independent acquisition mode on the mass spectrometer.
Peptides were searched against the Uniprot Swissprot Human database (released on 02/01/2023) supplemented with the USP20 and USP33 mutants using DiaNN (v1.9.0)[62] operating in library-free mode. Data filtering and statistical analysis were carried out in Python (v3.9.0) using the packages pandas, numpy, sklearn, scipy, rpy2, Plotnine, and Plotly and R (v4.4.3) using the package limma.
Protein groups identified with a single peptide or quantified in fewer than three replicates in at least 1 condition were filtered out. […]

[1] = IP-MS, FLAG-USP20-ΔDUSP2 vs EV, comparison bh_2 Sample_Limma_ImpMedInt_USP20_DUSP2_domain/EV
[2] = IP-MS, FLAG-USP20 UBP mutant vs EV, comparison USP20_E55K_D59R/EV, Limma
[3] = IP-MS, FLAG-USP20 vs EV, comparison USP20_wt/EV, Limma
[4] = Table S7b USP20 MS_and_motif, bait USP20

Row | Molecule | log2_FC (FLAG-USP20; [1]) | log2_FC (FLAG-USP20; [2]) | log2_FC (FLAG-USP20; [3]) | log2_FC (FLAG-USP20; [4]) | also measured
1 | B1 | 4 | 4.331 |  |  | 
2 | B2 |  | 3.963 | 4.015 | 4.015 | 
3 | B3 | 4.856 | 5.261 |  |  | 
4 | B4 |  |  |  |  | log2_FC (FLAG-USP33; IP-MS, FLAG-USP33-ΔDUSP2 vs EV, comparison bh_2 Sample_Limma_ImpMedInt_USP33_DUSP2_domain/EV): 1.755; log2_FC (FLAG-USP33; IP-MS, FLAG-USP33 vs EV, comparison USP33_wt/EV, Limma): 1.749; log2_FC (FLAG-USP33; Table S7c USP33 MS_and_motif, bait USP33): 1.749
5 | B5 |  | 4.883 | 5.071 | 5.071 | log2_FC (FLAG-USP20; IP-MS, FLAG-USP20-ΔUBP vs EV, comparison bh_2 Sample_Limma_ImpMedInt_USP20_UBP_domain/EV): 4.277
6 | B6 | 6.953 |  |  |  | 
